Assay results taken from the supplement of paper PMC9112550, “Optimization of the antimicrobial peptide Bac7 by deep mutational scanning” (BMC Biology, 2022).

System: Escherichia coli TOP10
Assay: shrunken log2 fold change of peptide-encoding DNA abundance (4.5 h post-induction vs induction); higher = less antimicrobial activity (less host growth inhibition)
Conditions: time post-induction: 4.5 h; library: site-saturation at positions 5, 18, 19, 20
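Further: peptides expressed intracellularly from a pBAD plasmid library in pooled LB shake-flask culture, induced with 0.3% L-arabinose, DNA abundance read by NGS, three biological replicates, DESeq2 with apeglm shrinkage.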

| Sequence | shrunken log2 fold change |
| --- | --- |
| RRIRTRPPRLPRPRPRPVLEPRP | 0.179 |
| RRIRTRPPRLPRPRPRPVNMPRP | -0.192 |
| RRIRTRPPRLPRPRPRPVPEPRP | 0.323 |
| RRIRTRPPRLPRPRPRPVQEPRP | 0.207 |
| RRIRTRPPRLPRPRPRPVQLPRP | -0.16 |
| RRIRTRPPRLPRPRPRPVQMPRP | 0.000776 |
| RRIRTRPPRLPRPRPRPVSDPRP | -0.114 |
| RRIRTRPPRLPRPRPRPVTDPRP | 0.0266 |
| RRIRTRPPRLPRPRPRPVTNPRP | -0.0277 |
| RRIRTRPPRLPRPRPRPVVAPRP | 0.418 |
| RRIRTRPPRLPRPRPRPVVWPRP | 0.617 |
| RRIRTRPPRLPRPRPRPVWKPRP | -0.026 |
| RRIRTRPPRLPRPRPRPWAYPRP | 0.013 |
| RRIRTRPPRLPRPRPRPWHTPRP | -0.0217 |
| RRIRTRPPRLPRPRPRPWIFPRP | -0.0415 |
| RRIRTRPPRLPRPRPRPWKAPRP | 0.0456 |
| RRIRTRPPRLPRPRPRPWLFPRP | 0.212 |
| RRIRTRPPRLPRPRPRPWLNPRP | -0.0665 |
| RRIRTRPPRLPRPRPRPWLRPRP | -0.161 |
| RRIRTRPPRLPRPRPRPWPHPRP | -0.091 |
| RRIRTRPPRLPRPRPRPWQRPRP | 0.157 |
| RRIRTRPPRLPRPRPRPWRHPRP | -0.0184 |
| RRIRTRPPRLPRPRPRPWSIPRP | -0.325 |
| RRIRTRPPRLPRPRPRPWVAPRP | -0.0456 |
| RRIRTRPPRLPRPRPRPWVIPRP | 0.0147 |

| Sequence | shrunken log2 fold change |
| --- | --- |
| RRIRTRPPRLPRPRPRPWVRPRP | 0.0999 |
| RRIRTRPPRLPRPRPRPWVSPRP | 0.137 |
| RRIRTRPPRLPRPRPRPWWMPRP | -0.133 |
| RRIRTRPPRLPRPRPRPWYCPRP | -0.153 |
| RRIRTRPPRLPRPRPRPWYKPRP | -0.0134 |
| RRIRTRPPRLPRPRPRPYCFPRP | -0.301 |
| RRIRTRPPRLPRPRPRPYCSPRP | -0.858 |
| RRIRTRPPRLPRPRPRPYCYPRP | -0.104 |
| RRIRTRPPRLPRPRPRPYDGPRP | -0.0303 |
| RRIRTRPPRLPRPRPRPYDIPRP | -0.795 |
| RRIRTRPPRLPRPRPRPYDQPRP | -0.241 |
| RRIRTRPPRLPRPRPRPYEKPRP | -0.657 |
| RRIRTRPPRLPRPRPRPYEYPRP | 0.0353 |
| RRIRTRPPRLPRPRPRPYGAPRP | -0.0628 |
| RRIRTRPPRLPRPRPRPYGIPRP | -0.0927 |
| RRIRTRPPRLPRPRPRPYGMPRP | -0.0576 |
| RRIRTRPPRLPRPRPRPYGPPRP | -0.406 |
| RRIRTRPPRLPRPRPRPYGQPRP | -0.107 |
| RRIRTRPPRLPRPRPRPYHLPRP | -0.805 |
| RRIRTRPPRLPRPRPRPYIIPRP | -0.59 |
| RRIRTRPPRLPRPRPRPYITPRP | -1.19 |
| RRIRTRPPRLPRPRPRPYLEPRP | -0.573 |
| RRIRTRPPRLPRPRPRPYMWPRP | -0.233 |
| RRIRTRPPRLPRPRPRPYNDPRP | -0.00735 |
| RRIRTRPPRLPRPRPRPYNHPRP | -0.138 |

| Sequence | shrunken log2 fold change |
| --- | --- |
| RRIRTRPPRLPRPRPRPYNIPRP | -0.131 |
| RRIRTRPPRLPRPRPRPYNKPRP | -1.03 |
| RRIRTRPPRLPRPRPRPYPHPRP | 0.0321 |
| RRIRTRPPRLPRPRPRPYQFPRP | 0.0636 |
| RRIRTRPPRLPRPRPRPYRRPRP | -0.0138 |
| RRIRTRPPRLPRPRPRPYSYPRP | -0.692 |
| RRIRTRPPRLPRPRPRPYVMPRP | -1.53 |
| RRIRTRPPRLPRPRPRPYYIPRP | -0.845 |
| RRIRTRPPRLPRPRPRPYYPPRP | -0.335 |
| RRIRTRPPRLPRPRPRPYYTPRP | -0.336 |
| RRIRVRPPRLPRPRPRPAAVPRP | 0.114 |
| RRIRVRPPRLPRPRPRPADVPRP | 0.000571 |
| RRIRVRPPRLPRPRPRPAEEPRP | 0.113 |
| RRIRVRPPRLPRPRPRPAEFPRP | 0.151 |
| RRIRVRPPRLPRPRPRPAGAPRP | 0.417 |
| RRIRVRPPRLPRPRPRPAGGPRP | 1.15 |
| RRIRVRPPRLPRPRPRPAGPPRP | 0.264 |
| RRIRVRPPRLPRPRPRPAGQPRP | 0.375 |
| RRIRVRPPRLPRPRPRPAHSPRP | 0.0902 |
| RRIRVRPPRLPRPRPRPAITPRP | -0.142 |
| RRIRVRPPRLPRPRPRPAKEPRP | 0.226 |
| RRIRVRPPRLPRPRPRPAKNPRP | 0.153 |
| RRIRVRPPRLPRPRPRPALPPRP | 0.329 |
| RRIRVRPPRLPRPRPRPALYPRP | 0.22 |
| RRIRVRPPRLPRPRPRPAMVPRP | 0.118 |
